B1: ADA: adenosine deaminase, Sigma Type IV, from calf intestinal mucosa (bovine) (protein)
chain: AQTPAFNKPKVELHVHLDGAIKPETILYYGRKRGIALPADTPEELQNIIGMDKPLSLPEFLAKFDYYMPAIAGCREAVKRIAYEFVEMKAKDGVVYVEVRYSPHLLANSKVEPIPWNQAEGDLTPDEVVSLVNQGLQEGERDFGVKVRSILCCMRHQPSWSSEVVELCKKYREQTVVAIDLAGDETIEGSSLFPGHVKAYAEAVKSGVHRTVHAGEVGSANVVKEAVDTLKTERLGHGYHTLEDATLYNRLRQENMHFEVCPWSSYLTGAWKPDTEHPVVRFKNDQVNYSLNTDDPLIFKSTLDTDYQMTKNEMGFTEEEFKRLNINAAKSSFLPEDEKKELLDLLYKAYGMPSPA
B2: sDPP-IVdeglycos: enzymatically deglycosylated sDPP-IV (EndoF1-GST treated) (protein)
chain: GTDDATADSRKTYTLTDYLKNTYRLKLYSLRWISDHEYLYKQENNILVFNAEYGNSSVFLENSTFDEFGHSINDYSISPDGQFILLEYNYVKQWRHSYTASYDIYDLNKRQLITEERIPNNTQWVTWSPVGHKLAYVWNNDIYVKIEPNLPSYRITWTGKEDIIYNGITDWVYEEEVFSAYSALWWSPNGTFLAYAQFNDTEVPLIEYSFYSDESLQYPKTVRVPYPKAGAVNPTVKFFVVNTDSLSSVTNATSIQITAPASMLIGDHYLCDVTWATQERISLQWLRRIQNYSVMDICDYDESSGRWNCLVARQHIEMSTTGWVGRFRPSEPHFTLDGNSFYKIISNEEGYRHICYFQIDKKDCTFITKGTWEVIGIEALTSDYLYYISNEYKGMPGGRNLYKIQLSDYTKVTCLSCELNPERCQYYSVSFSKEAKYYQLRCSGPGLPLYTLHSSVNDKGLRVLEDNSALDKMLQNVQMPSKKLDFIILNETKFWYQMILPPHFDKSKKYPLLLDVYAGPCSQKADTVFRLNWATYLASTENIIVASFDGRGSGYQGDKIMHAINRRLGTFEVEDQIEAARQFSKMGFVDNKRIAIWGWSYGGYVTSMVLGSGSGVFKCGIAVAPVSRWEYYDSVYTERYMGLPTPEDNLDHYRNSTVMSRAENFKQVEYLLIHGTADDNVHFQQSAQISKALVDVGVDFQAMWYTDEDHGIASSTAHQHIYTHMSHFIKQCFSLP
B3: sDPP-IVglycos: glycosylated sDPP-IV (protein)
chain: B2 chain

Assays:
DPP-IV = target: T1, DPP-IV (Homo sapiens, UniProt P27487); assay: Biacore surface plasmon resonance binding to immobilized DPP-IV; details: ADA from bovine
T1 construct: The ectodomain of DPP-IV, residues 31-766 (sDPP-IV), was amplified by PCR using a cDNA; made in house; host or cells: Pichia pastoris strain GS115 (pPICZα-A vector)
Protocol: DPP-IV was immobilized on a CM5 surface plasmon resonance sensor (Biacore) using standard amide coupling chemistry. The organic adlayer on this sensor type consists of carboxymethylated dextran (MW≈100 kDA). After activation of the carboxylic acid groups using carbodiimide/N-hydroxysuccinimide solutions, the surface was contacted with a DPP-IV solution (80 μl) containing≈100 μg/ml protein in acetate buffer (10 mM, pH 4.5). […] The surfaces of two flow cells were modified with protein. […] Hepes buffer (0.01 M Hepes, pH 7.4, 0.15 M NaCl, 3 mM EDTA, 0.005% polysorbate 20 (v/v)) was used as the running buffer. Diprotin-A was disolved directly in this buffer. […] The final inhibitor solution contained less than 0.1% DMSO. Binding experiments were carried out by contacting the immobilized protein surfaces with inhibitor solutions of varying concentrations at a flow rate of 10 μl/min or 30 μl/min. After each contact with inhibitor, the protein surfaces were regenerated by extensively washing with running buffer.

[1] = target: T2, sDPP-IV (soluble extracellular domain of human dipeptidyl peptidase IV) (Homo sapiens, UniProt P27487); assay: DPP-IV activity assay, fluorescence of products from Ala-Pro-7-amido-4-trifluoromethylcoumarin; type: biochemical; details: Lineweaver-Burk plots; 50 mM Tris/HCl pH 7.8, 100 mM NaCl, 0.1 mg/ml BSA, 0.5% dimethylformamide; 25° C.
T2 construct: The ectodomain of DPP-IV, residues 31-766 (sDPP-IV), was amplified by PCR using a cDNA; made in house; host or cells: Pichia pastoris strain GS115 (pPICZα-A vector)
Protocol: A 20 mM stock solution in 10% DMF is stored at −20° C. until use. […] DPP-IV activity assays were performed in 96 well plates in a total assay volume of 100 μl. The assay buffer consists of S-Buffer containing 0.1 mg/ml BSA. […] Initial rate constants are calculated by best fit linear regression.

Molecule	koff (dissociation rate) of ADA (DPP-IV)	kon of ADA (DPP-IV)	Km [1]	kcat [1]
B1	8.75e-05 s⁻¹	29800 M⁻¹ s⁻¹	–	–
B2	–	–	17.2 µM	43.1 s⁻¹
B3	–	–	15.5 µM	37.3 s⁻¹
